In patent US6689574B1, “Assays for nuclear receptor agonists and antagonists using fluorescence resonance energy transfer” (Merck & Co., Inc., priority 1997, dated 2004):

B1: Eu3+K-labeled hCBP1-113 (NH2-terminal amino acids 1-113 of human CBP, cleaved from GST with thrombin, directly labeled with europium cryptate) (other)
chain: MAENLLDGPPNPKRAKLSSPGFSANDSTDFGSLFDLENDLPDELIPNGGELGLLNSGNLVPDAASKHKQLSELLRGGSGSSINPGIGNVSASSPVQQGLGGQAQGQPNSANMA
modifications: directly labeled with europium cryptate (Eu3+K); labeled residues not stated
notes: Made as a GST fusion in E. coli (pGEX) and cleaved with thrombin; The preparation gave two bands, 12 kd (expected) and 10 kd (likely a premature termination product)
B4: biotin-labeled hPPARγ1LBD (human PPARγ1 ligand binding domain, amino acids 176-478, cleaved free of GST) (receptor)
chain: SHNAIRFGRIAQAEKEKLLAEISSDIDQLNPESADLRQALAKHLYDSYIKSFPLTKAKARAILTGKTTDKSPFVIYDMNSLMMGEDKIKFKHITPLQEQSKEVAIRIFQGCQFRSVEAVQEITEYAKSIPGFVNLDLNDQVTLLKYGVHEIIYTMLASLMNKDGVLISEGQGFMTREFLKSLRKPFGDFMEPKFEFAVKFNALELDDSDLAIFIAVIILSGDRPGLLNVKPIEDIQDNLLQALELQLKLNHPESSQLFAKLLQKMTDLRQIVTEHVQLLQVIKKTETDMSLHPLLQEIYKDLY
modifications: biotinylated with Sulfo-NHS-LC-Biotin to a biotin:hPPARγ1LBD ratio of 3:1; sites not stated
notes: Made from pGEX-KG as a GST fusion and cleaved free of GST; In the assay it carried streptavidin-labeled XL665 through the biotin; also called biotin-hPPARγ1LBD

What was measured:
[1] = biological target: PPARγ1LBD (Homo sapiens, UniProt P37231); assay: Binding constant for hCBP/PPARγ1LBD interaction by FRET competition with non-biotinylated hCBP1-453 (FIG. 6); set-up: amino acids 176-478 of PPARγ1; made in house; host or cells: E. coli (DH5α); conditions: saturating PPARγ agonist (10 μM BRL49653); derived from FIG. 6; read-out: Kd for the interaction between hCBP1-453 and PPARγ1LBD
Chain of PPARγ1LBD (P37231 204-505): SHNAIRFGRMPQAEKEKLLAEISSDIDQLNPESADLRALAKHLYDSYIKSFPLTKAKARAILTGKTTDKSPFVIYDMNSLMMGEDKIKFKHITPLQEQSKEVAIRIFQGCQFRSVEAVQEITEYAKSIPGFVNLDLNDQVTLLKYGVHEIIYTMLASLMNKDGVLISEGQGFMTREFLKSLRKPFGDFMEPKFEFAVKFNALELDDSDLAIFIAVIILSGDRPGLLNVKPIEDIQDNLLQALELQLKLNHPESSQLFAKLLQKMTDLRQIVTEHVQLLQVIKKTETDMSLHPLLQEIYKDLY
Chain of PPARγ1LBD (Q92793 1-453 partner): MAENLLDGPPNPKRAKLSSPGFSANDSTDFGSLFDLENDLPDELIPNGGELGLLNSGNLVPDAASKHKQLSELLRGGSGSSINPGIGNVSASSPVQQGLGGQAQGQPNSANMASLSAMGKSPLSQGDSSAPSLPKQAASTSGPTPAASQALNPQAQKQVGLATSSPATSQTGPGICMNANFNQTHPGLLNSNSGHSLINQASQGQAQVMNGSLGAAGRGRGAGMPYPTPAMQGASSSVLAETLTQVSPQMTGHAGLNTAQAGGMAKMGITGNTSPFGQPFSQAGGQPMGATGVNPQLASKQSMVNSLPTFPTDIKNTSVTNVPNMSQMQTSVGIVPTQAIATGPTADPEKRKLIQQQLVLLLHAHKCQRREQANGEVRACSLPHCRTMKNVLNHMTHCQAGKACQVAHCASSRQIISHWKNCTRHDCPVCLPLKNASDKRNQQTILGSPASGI
Method: The above-described assay can also be used to characterize the interaction between nuclear receptors with co-activators as, e.g., by determining the binding constant for that interaction. […] Saturating amounts of PPARγ agonist (10 μM BRL49653) were used. Increasing concentrations of non-biotinylated hCBP1-453 were used to titrate away biotin-hCBP-PPARγ1LBD complex and decrease the fluorescence energy transfer. A Kd of 300 nM for the interaction between hCBP1-453 and PPARγ1LBD can be derived from the results illustrated in FIG. 6 and this Kd (300 nM) is a measurement of the affinity between CBP and PPARγ.

[2] = biological target: B4; assay: FRET, Eu3+K-hCBP1-113 + biotin-hPPARγ1LBD + SA-XL665, 1 µM AD5075, HEPES + 0.05% NP40
[3] = biological target: B4; assay: FRET, Eu3+K-hCBP1-113 (100 nM) + biotin-hPPARγ1LBD (100 nM) + SA-XL665 (100 nM), 1 µM AD5075, PBS
[4] = biological target: B4; assay: FRET, same format without agonist (0.1% DMSO vehicle), PBS; background control
[5] = biological target: B4; assay: FRET, same format without agonist (vehicle), HEPES + 0.05% NP40; background control
[6] = biological target: B4; assay: FRET, experiment 3 format, HEPES + 0.05% NP40
Description: (§1) In order to get an even better signal-noise ratio, the above-described format was modified slightly for experiment 3.

[7] = biological target: B4; assay: FRET, GST-hCBP1-113 + Eu3+K anti-GST antibody + biotin-hPPARγ1LBD (100 nM) + SA-XL665 (500 nM), 1 µM AD5075, HEPES + 0.05% NP40
Description: as §1

[8] = biological target: non-biotinylated hCBP1-453 (NH2-terminal amino acids 1-453 of human CBP, cleaved from GST) (human, UniProt Q92793 1-453); assay: FRET competition: increasing non-biotinylated hCBP1-453 displaces biotin-hCBP from PPARγ1LBD, saturating agonist (10 µM BRL49653)
Method: The above-described assay can also be used to characterize the interaction between nuclear receptors with co-activators as, e.g., by determining the binding constant for that interaction. […] Saturating amounts of PPARγ agonist (10 μM BRL49653) were used.

[9] = biological target: B1; assay: FRET, Eu3+K-hCBP1-113 + biotin-hPPARγ1LBD + SA-XL665, PBS

hCBP1-453: NH2-terminal 1-453 amino acids of human CBP, expressed in E. coli as GST fusion and cleaved
Kd [1]: 300 nM

B1
Emission ratio with AD5075 [2]: 967 665 nm/620 nm ratio x 10,000 | Emission ratio with AD5075 [3]: 1130 665 nm/620 nm ratio x 10,000 | Emission ratio with vehicle [4]: 1070 665 nm/620 nm ratio x 10,000 | Emission ratio with vehicle [5]: 617 665 nm/620 nm ratio x 10,000

B2: GST-hCBP1-113 (glutathione S-transferase fused to amino acids 1-113 of human CBP) (other)
chain: MAENLLDGPPNPKRAKLSSPGFSANDSTDFGSLFDLENDLPDELIPNGGELGLLNSGNLVPDAASKHKQLSELLRGGSGSSINPGIGNVSASSPVQQGLGGQAQGQPNSANMA
notes: Uncleaved fusion, detected in the assay by Eu3+K-labeled goat anti-GST antibody (Pharmacia 27-4577-01); also called GST-CBP fusion protein; not shown: glutathione S-transferase (GST) of the pGEX expression vector (Pharmacia Biotech); pGEX linker with thrombin site between GST and CBP
signal-noise ratio (with AD5075 against without) [6]: 2 fold | Emission ratio with AD5075 [7]: 1080 665 nm/620 nm ratio x 10,000 | Emission ratio with vehicle [5]: 536 665 nm/620 nm ratio x 10,000

B3: GST-hPPARγ1LBD (glutathione S-transferase fused to amino acids 176-478 of human PPARγ1) (receptor)
chain: SHNAIRFGRIAQAEKEKLLAEISSDIDQLNPESADLRQALAKHLYDSYIKSFPLTKAKARAILTGKTTDKSPFVIYDMNSLMMGEDKIKFKHITPLQEQSKEVAIRIFQGCQFRSVEAVQEITEYAKSIPGFVNLDLNDQVTLLKYGVHEIIYTMLASLMNKDGVLISEGQGFMTREFLKSLRKPFGDFMEPKFEFAVKFNALELDDSDLAIFIAVIILSGDRPGLLNVKPIEDIQDNLLQALELQLKLNHPESSQLFAKLLQKMTDLRQIVTEHVQLLQVIKKTETDMSLHPLLQEIYKDLY
notes: Uncleaved fusion, detected in the assay by Eu3+K-labeled anti-GST antibody; not shown: glutathione S-transferase (GST) of the pGEX-KG vector (Guan & Dixon 1991); pGEX-KG linker between GST and the LBD
Kd [8]: 300 nM

B4
binding result [9]: binds
